Measurements taken from the supplement of paper PMC7125110.
± gives the standard error. For some of these results: Variants at the floor of the assay were thinned out.

B1: glmS ribozyme (parent)
chain: AUAAAAGCGCCAGAACUACAGAAAUGUAGUUGACGAGGAGGAGGUUUAUCGAAUUUUCGGCGGAUGCCUCCAAA

Key:
Conditions in all cases: with glucosamine-6-phosphate
[1] = variants of: B1; assay: kcat; higher = faster cleavage; RNA array
Procedure, shortened: (§1)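 Glucosamine-6-phosphate in HEPES/KCl/Mg(OAc)2 buffer, at 40 μM to 10 mM, was flowed over barcoded ribozyme variants transcribed in situ by E. coli RNA polymerase on sequenced MiSeq chips. Tracking was through a hybridised Cy3 probe at 37 °C. kobs, kcat and KM came from exponential decay fits and weighted Michaelis–Menten fits of normalised per-tile medians.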

[2] = variants of: B1; assay: KM; higher = weaker cofactor use; RNA array
Procedure, shortened: as §1

[3] = variants of: B1; assay: self-cleavage kobs at 40 uM GlcN6P; higher = faster cleavage; RNA array
Procedure, shortened: as §1

[4] = variants of: B1; assay: self-cleavage kobs at 160 uM GlcN6P; higher = faster cleavage; RNA array
Procedure, shortened: as §1

[5] = variants of: B1; assay: self-cleavage kobs at 640 uM GlcN6P; higher = faster cleavage; RNA array
Procedure, shortened: as §1

[6] = variants of: B1; assay: self-cleavage kobs at 2500 uM GlcN6P; higher = faster cleavage; RNA array
Procedure, shortened: as §1

[7] = variants of: B1; assay: self-cleavage kobs at 10000 uM GlcN6P; higher = faster cleavage; RNA array
Procedure, shortened: as §1

Variant | kcat [1] [s⁻¹] | KM [2] [µM] | self-cleavage kobs at 40 uM GlcN6P [3] [s⁻¹] | self-cleavage kobs at 160 uM GlcN6P [4] [s⁻¹] | self-cleavage kobs at 640 uM GlcN6P [5] [s⁻¹] | self-cleavage kobs at 2500 uM GlcN6P [6] [s⁻¹] | self-cleavage kobs at 10000 uM GlcN6P [7] [s⁻¹]
A53G U55C | 0.0183 ± 0.0057 | 1230 ± 510 | 0.000669 ± 7.9e-05 | 0.00157 ± 0.00027 | 0.00872 ± 0.0013 | 0.0106 ± 0.0024 | 0.0167 ± 0.0032
A53G U55G | 0.0437 ± 0.021 |  | 0.0007 ± 8.8e-05 | 0.00323 ± 0.0008 | 0.00936 ± 0.0021 | 0.0152 ± 0.0045 | 0.0622 ± 0.015
U57A C68U | 0.00017 ± 1.9e-05 | 2500 ± 560 |  |  | 3.78e-05 ± 8.1e-06 | 7.94e-05 ± 1e-05 | 0.000143 ± 2.2e-05
U55A U69G | 6.88e-05 ± 8.3e-06 |  |  | 8.26e-05 ± 1.6e-05 | 6.99e-05 ± 1.2e-05 | 7.05e-05 ± 8.6e-06 | 5.04e-05 ± 1.3e-05
U54C U57A | 0.000407 ± 0.00018 |  |  |  | 7.93e-05 ± 1.9e-05 | 0.000112 ± 2.5e-05 | 0.000297 ± 4.3e-05
U54C U57G | 0.000492 ± 1.5e-05 |  |  |  |  |  | 6.43e-05 ± 1.1e-05
U54G C68G | 0.0001 ± 1e-05 | 89.1 ± 43 | 2.37e-05 ± 7.3e-06 | 6.82e-05 ± 8.7e-06 | 0.000111 ± 1.1e-05 | 8.41e-05 ± 9.1e-06 | 9.69e-05 ± 8.7e-06
U55C G66C | 0.00112 ± 9.6e-05 | 1950 ± 340 |  | 7.47e-05 ± 1.8e-05 | 0.000336 ± 7.1e-05 | 0.000678 ± 0.00012 | 0.000913 ± 9.7e-05
G60C C70G | 2.59e-05 ± 9.4e-06 |  | < 1e-05 |  |  |  | < 1e-05
G59U A64G | 6.46e-05 ± 1.1e-05 |  | < 1e-05 |  |  | 7.94e-05 ± 2.1e-05 | 5.92e-05 ± 9.3e-06
A53U U56A | 0.00699 ± 0.0012 | 1820 ± 450 | 0.000172 ± 2.1e-05 | 0.000573 ± 8e-05 | 0.00169 ± 0.0002 | 0.00313 ± 0.00052 | 0.00667 ± 0.00065
U57C U65A | 1.91e-05 ± 3.6e-07 | 1410 ± 140 | < 1e-05 |  |  |  | 
U57C U65G | 3.4e-05 ± 3.5e-06 |  |  |  |  | 3.03e-05 ± 1.3e-05 | 3.07e-05 ± 1.1e-05
U54G U65G | 0.00368 ± 0.00099 | 3430 ± 1300 | 5.92e-05 ± 6.8e-06 | 0.00012 ± 2.1e-05 | 0.000629 ± 9e-05 | 0.00144 ± 0.00021 | 0.00282 ± 0.00029
U54G G60A | 2.28e-05 ± 5.4e-06 |  |  | < 1e-05 |  |  | 
A53U G63C | < 1e-05 |  |  |  |  |  | 
G59U G66A | 2.67e-05 ± 2.5e-07 | 3110 ± 100 |  |  |  |  | 
G59U G66U | < 1e-05 |  | < 1e-05 |  |  |  | < 1e-05

Variant | kcat [1] [s⁻¹] | KM [2] [µM] | self-cleavage kobs at 40 uM GlcN6P [3] [s⁻¹] | self-cleavage kobs at 160 uM GlcN6P [4] [s⁻¹] | self-cleavage kobs at 640 uM GlcN6P [5] [s⁻¹] | self-cleavage kobs at 2500 uM GlcN6P [6] [s⁻¹] | self-cleavage kobs at 10000 uM GlcN6P [7] [s⁻¹]
U54G C58G | 0.000237 ± 2.6e-05 | 4280 ± 1000 |  |  |  | 9.35e-05 ± 1.7e-05 | 0.000164 ± 2e-05
U55C C61G | < 1e-05 |  | < 1e-05 |  |  |  | < 1e-05
U54G U69A | 0.000109 ± 1.4e-05 |  | 5.13e-05 ± 1.4e-05 |  | 0.000146 ± 3e-05 | 9.9e-05 ± 1.8e-05 | 0.000103 ± 1.9e-05
U54A C58A | 0.000802 ± 0.00016 | 5450 ± 1700 |  | 2.83e-05 ± 1.3e-05 | 9.65e-05 ± 1.3e-05 | 0.000217 ± 2.9e-05 | 0.000547 ± 5.7e-05
U54A C58G | 0.000169 ± 2.8e-05 | 3660 ± 1700 | < 1e-05 |  |  | 7.4e-05 ± 2.3e-05 | 0.000123 ± 2.1e-05
U56G C68A | 2.79e-05 ± 2.6e-06 |  |  |  |  | 2.72e-05 ± 1.3e-05 | 
U55G C58G | 0.000161 ± 1.7e-05 | 6790 ± 1400 |  |  |  | 4.5e-05 ± 8.6e-06 | 9.57e-05 ± 1.1e-05
U55A C58A | 0.000722 ± 7.6e-05 | 4620 ± 800 |  |  | 9.44e-05 ± 2e-05 | 0.000254 ± 4.5e-05 | 0.000491 ± 7.2e-05
C58U C61U | < 1e-05 |  | < 1e-05 |  | < 1e-05 |  | 
U56A G66A | 0.00503 ± 0.0023 |  | 0.000167 ± 1.7e-05 | 0.00039 ± 6.4e-05 | 0.00117 ± 0.00021 | 0.00253 ± 0.00043 | 0.00718 ± 0.0011
G59U U69G | 2.94e-05 ± 8.4e-06 |  |  |  |  |  | 
C58U U69C | 2.82e-05 ± 7e-06 |  |  |  |  | 5.56e-05 ± 1.6e-05 | 2.52e-05 ± 5.6e-06
C58U C68A | 3.52e-05 ± 1.5e-05 |  |  |  |  | 5.08e-05 ± 2.1e-05 | 
G59A C70G | 2.32e-05 ± 4.8e-06 |  |  |  | 2.83e-05 ± 1.3e-05 |  | 
G59A C70U | 0.000157 ± 9e-06 | 1970 ± 320 |  |  | 4.24e-05 ± 8e-06 | 8.29e-05 ± 9.8e-06 | 0.000133 ± 1.1e-05
U56A C70G | 0.000119 ± 1.4e-05 |  | 4.01e-05 ± 1e-05 | 8.18e-05 ± 1e-05 | 0.000105 ± 1.1e-05 | 0.000153 ± 1.5e-05 | 0.0001 ± 1.1e-05
U56A C70A | 8.96e-05 ± 1.4e-05 |  | 3.68e-05 ± 1.1e-05 | 5.73e-05 ± 1.1e-05 | 7.05e-05 ± 1.1e-05 | 0.000153 ± 2.3e-05 | 8.51e-05 ± 9.4e-06
